According to US20050112690A1:

Target: extra-domain B (ED-B) of fibronectin, as present in arteriosclerotic plaque of aorta specimens of WHHL rabbits (rabbit (WHHL rabbit aorta tissue)) (UniProt Q28749)
Assay: in vitro perfusion (Ussing chamber) of WHHL rabbit aorta specimens with radiolabeled scFv, 20 min at room temperature, gamma counting

Chain of UniProt Q28749 (Q28749 1221-1309 limits assumed): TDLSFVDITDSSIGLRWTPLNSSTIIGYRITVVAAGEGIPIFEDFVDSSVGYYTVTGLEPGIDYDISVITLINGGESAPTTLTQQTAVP

- rating factor (bound amount on arteriosclerotic vs non-arteriosclerotic aorta sections): 2.8
Substance: 125I-labeled L19 derivative ZK212667 (L19) (scFv)
